Test results from FireProtDB (doi:10.1021/bi010565n).

Conditions: Aspergillus oryzae (strain ATCC 42149 / RIB 40), pH 7, Thermal, MOPS 30 mM, reversible: yes(0.94), whole UniProt chain shown

B1: Guanyl-specific ribonuclease T1 wild type, P00651 (protein)
chain: MMYSKLLTLTTLLLPTALALPSLVERACDYTCGSNCYSSSDVSTAQAAGYQLHEDGETVGSNSYPHKYNNYEGFDFSVSSPYYEWPILSSGDVYSGGSPGADRVVFNENNQLAGVITHTGASGNNFVECT
**Q.** What does the source list for B1?
**A.** Tm (CD): 51.2 °C; Tm (DSC): 51.5 °C
